The values below come from PMC5856776 (2018).

Holding throughout (assay): SPR
On the technique in general: SPR reads the build-up and loss of mass on a sensor chip optically.

Assay [1] has as its target T1, type I collagen (BD-Biosciences) (UniProt P02454 152-1207; P02466 86-1125).
The target of assay [2] is T1, type I collagen (BD-Biosciences). The source holds these as a separate data set.
Assay [3] has the same target. The source holds these as a separate data set.

T1 sequence (P02454 152-1207, chain 1 of 2): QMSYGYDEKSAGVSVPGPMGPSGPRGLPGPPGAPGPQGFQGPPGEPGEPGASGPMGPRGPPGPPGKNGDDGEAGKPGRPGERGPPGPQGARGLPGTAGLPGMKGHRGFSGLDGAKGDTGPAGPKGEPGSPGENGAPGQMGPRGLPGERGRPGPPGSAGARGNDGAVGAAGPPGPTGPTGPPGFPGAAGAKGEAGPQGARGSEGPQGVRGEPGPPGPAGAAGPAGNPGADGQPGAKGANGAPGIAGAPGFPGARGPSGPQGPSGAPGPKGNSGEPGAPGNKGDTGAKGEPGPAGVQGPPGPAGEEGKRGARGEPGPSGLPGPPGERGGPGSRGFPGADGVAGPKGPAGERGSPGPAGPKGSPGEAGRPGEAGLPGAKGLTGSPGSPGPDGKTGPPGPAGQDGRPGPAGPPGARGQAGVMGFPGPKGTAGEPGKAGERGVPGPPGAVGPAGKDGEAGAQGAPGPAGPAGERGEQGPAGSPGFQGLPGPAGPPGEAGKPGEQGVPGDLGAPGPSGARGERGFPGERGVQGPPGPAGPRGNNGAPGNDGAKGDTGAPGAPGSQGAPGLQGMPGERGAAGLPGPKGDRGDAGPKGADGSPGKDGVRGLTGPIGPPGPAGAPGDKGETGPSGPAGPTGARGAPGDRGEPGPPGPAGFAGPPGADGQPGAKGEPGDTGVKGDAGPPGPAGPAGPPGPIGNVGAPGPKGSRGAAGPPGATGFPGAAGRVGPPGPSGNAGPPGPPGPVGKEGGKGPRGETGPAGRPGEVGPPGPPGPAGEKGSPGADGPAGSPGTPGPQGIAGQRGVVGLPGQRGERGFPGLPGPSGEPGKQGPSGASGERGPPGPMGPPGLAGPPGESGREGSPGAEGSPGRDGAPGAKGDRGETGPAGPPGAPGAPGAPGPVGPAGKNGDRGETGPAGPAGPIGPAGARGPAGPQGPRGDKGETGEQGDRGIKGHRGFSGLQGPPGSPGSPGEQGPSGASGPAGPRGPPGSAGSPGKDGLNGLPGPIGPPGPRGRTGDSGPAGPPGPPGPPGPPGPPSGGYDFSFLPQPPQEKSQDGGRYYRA
T1 sequence (P02466 86-1125, chain 2 of 2): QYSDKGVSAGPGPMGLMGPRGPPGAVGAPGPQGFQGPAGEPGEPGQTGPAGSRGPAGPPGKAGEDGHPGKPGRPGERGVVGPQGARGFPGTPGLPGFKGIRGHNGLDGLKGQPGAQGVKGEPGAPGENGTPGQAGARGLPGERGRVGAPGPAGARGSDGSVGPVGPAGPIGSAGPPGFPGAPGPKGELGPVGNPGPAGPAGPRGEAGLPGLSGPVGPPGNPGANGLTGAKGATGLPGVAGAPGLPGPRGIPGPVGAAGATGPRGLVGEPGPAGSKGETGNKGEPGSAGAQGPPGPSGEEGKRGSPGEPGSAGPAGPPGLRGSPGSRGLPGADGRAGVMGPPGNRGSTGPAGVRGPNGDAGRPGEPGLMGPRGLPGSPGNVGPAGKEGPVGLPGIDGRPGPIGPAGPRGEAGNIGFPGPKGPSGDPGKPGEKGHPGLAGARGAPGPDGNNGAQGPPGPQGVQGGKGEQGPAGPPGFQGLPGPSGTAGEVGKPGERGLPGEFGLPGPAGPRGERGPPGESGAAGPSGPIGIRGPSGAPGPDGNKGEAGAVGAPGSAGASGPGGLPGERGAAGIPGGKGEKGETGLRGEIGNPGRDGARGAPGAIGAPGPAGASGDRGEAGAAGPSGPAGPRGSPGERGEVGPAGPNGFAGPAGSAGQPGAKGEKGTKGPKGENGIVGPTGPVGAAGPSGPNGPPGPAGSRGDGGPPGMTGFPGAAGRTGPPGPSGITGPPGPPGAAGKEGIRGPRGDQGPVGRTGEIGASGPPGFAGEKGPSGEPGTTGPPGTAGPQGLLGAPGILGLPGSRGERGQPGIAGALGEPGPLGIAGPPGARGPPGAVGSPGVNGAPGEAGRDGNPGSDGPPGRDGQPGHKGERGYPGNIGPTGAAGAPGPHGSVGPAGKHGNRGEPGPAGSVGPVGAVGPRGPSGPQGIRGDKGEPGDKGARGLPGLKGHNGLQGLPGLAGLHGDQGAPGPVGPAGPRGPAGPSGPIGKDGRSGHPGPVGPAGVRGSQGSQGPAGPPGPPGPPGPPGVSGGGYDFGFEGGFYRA

B1: full-length recombinant Cnm (rCnm-FL) (domain or fragment)
chain: ASDVSNNVSSLTVSPTQINDGGKTTVRFEFDEHAQNIKAGDTITVNWQNSGTVRGTGYTKTIKLEVQGKYVGDLVVTQDKAVVTFNDSITGLQNITGWGEFEIEGRNFTDTTTGNTGSFQVTSGGKTSEVTVVKSASGTTGVFYYKTGDMQTDDTNHVRWFLNINNENAYVDSDIRIEDDIQSGQTLDIDSFDITVNGSESYRGQEGINQLAQRYGATISADSASGHISVYIPQGYASLNSFSIMYLTKVDNPDQKTFENNSKAWYKENGKDAVDGKEFNHSVANVNAAGGVDGRTTTTTEKPTTTTEAPTTTEAPTTTEAPTTTETPTTTEAPTTTEAPTTTEAPTTTEAPTTTETPTTTEAPTTTEAPTTTEAPTTTEAPTTTEAPTTTEAPTTTEAPTTTEASSETTKAEEKTTEVKEPEKTTTTAPAGKT
Consider B1, for which binding in assay [1] was put at a Kd of 289 nM. Besides, the koff in assay [2] was 0.00198 s⁻¹. Also, the Ka in assay [3] came to 3.46e+06 M⁻¹.

B2: rCnm N2 (domain or fragment)
chain: ASGTTGVFYYKTGDMQTDDTNHVRWFLNINNENAYVDSDIRIEDDIQSGQTLDIDSFDITVNGSESYRGQEGINQLAQRYGATISADSASGHISVYIPQGYASLNSFSIMYLTKVDNPDQKTFENNSKAWYKENGKDAVDGKEFNHSVANVNAAGGVDGR
B2 came in with a Kd in assay [1] of 4530 nM. Further, in assay [2], the koff was determined as 0.000335 s⁻¹. Also, the Ka in assay [3] was 221000 M⁻¹.

B3: rCnm N1+2 (domain or fragment)
chain: SDVSNNVSSLTVSPTQINDGGKTTVRFEFDEHAQNIKAGDTITVNWQNSGTVRGTGYTKTIKLEVQGKYVGDLVVTQDKAVVTFNDSITGLQNITGWGEFEIEGRNFTDTTTGNTGSFQVTSGGKTSEVTVVKSASGTTGVFYYKTGDMQTDDTNHVRWFLNINNENAYVDSDIRIEDDIQSGQTLDIDSFDITVNGSESYRGQEGINQLAQRYGATISADSASGHISVYIPQGYASLNSFSIMYLTKVDNPDQKTFENNSKAWYKENGKDAVDGKEFNHSVANVNAAGGVDGR
In assay [1], B3 gave a Kd of 817 nM. In assay [2], this molecule yielded a koff of 0.0244 s⁻¹. The molecule further yielded a Ka in assay [3] of 1.22e+06 M⁻¹.

As a reminder, the Kd is the free concentration of one partner at which half of the binding sites on the other are occupied at equilibrium, for simple one-to-one binding. Usually koff stands for the first-order rate constant of dissociation. Read a high koff as a short-lived complex.
